{"source": "patent US20110318308A1", "about": "“LIPOCALIN-TYPE PROSTAGLANDIN D2 SYNTHASE AS A BIOMARKER FOR LUNG CANCER PROGRESSION AND PROGNOSIS” (WINTHROP-UNIVERSITY HOSPITAL, priority 2010, published 2011)", "key": {"A549 cells [1]": {"test_system": "A549 cells", "conditions": "cited from earlier work"}, "[2]": {"test_system": "mouse lung epithelial (MLE) cells", "experiment": "MTS cell proliferation assay, control mouse lung epithelial (MLE) cells", "type": "cell-based", "conditions": "18 h incubation", "experimental": "(§1) The effect of exogenously added L-PGDS on lung cell growth in culture was determined by MTS proliferation assay (Promega, Madison, Wis.). […] MLE cell proliferation was unaffected at L-PGDS concentrations up to […] but ceased at a concentration of 25 mg/l and above, as shown in FIG. 6.\n(§2) Cell proliferation was measured with the use of a CellTiter 96 AQeous Non-Radioactive Cell Proliferation Assay (Promega, Madison, Wis.). Briefly, cells were plated in 96-well plates at a density of 500 cells/well in 200 μl of medium with 5% FBS. The cells were incubated at 37° C. in a humidified 5% CO2 atmosphere for the indicated time, after which 20 μl of combined MTS/PMS solution (Promega) was added per well. After a 2 h incubation at 37° C., absorbance at 490 nm was measured using an enzyme-linked immunosorbent assay (ELISA) plate reader. Data represent the average absorbance of three experiments each performed in triplicate."}, "A549 cells [3]": {"test_system": "A549 cells", "experiment": "MTS cell proliferation assay, A549 cells with exogenously added L-PGDS", "type": "cell-based, human", "conditions": "for A549 hyperproliferation: exogenously added L-PGDS, qualitative statement", "experimental": "as §1, §2\nThe effect of exogenously added L-PGDS on A549 proliferation was observed."}, "A549 cells [4]": {"test_system": "A549 cells", "experiment": "PDGF-stimulated trans-well migration assay, A549 cells", "type": "cell-based, human", "conditions": "for decrease in PGDF stimulated A549 migration: 5 h, trans-well inserts; for PDGF-stimulated migration of A549 cells: exogenously added L-PGDS, qualitative statement", "experimental": "Migration assays were performed using 24-well cell culture inserts with 8.0 μm polyethylene terephthalate cyclopore membranes (Falcon) as detailed in Lundberg M S, Curto K A, Bilato C, Monticone R E, Crow M T. Regulation of vascular smooth muscle migration by mitogen-activated protein kinase and calcium/calmodulin-dependent protein kinase II signaling pathways. J Mol Cell Cardiol 1998; 30:2377-89. The underside of the membrane was coated with 100 μl rat tail collagen type I (50 μg/ml) for 18-20 h, washed and air-dried before each experiment. Cells were trypsinized and re-suspended in RPMI. Then 2×10^4 cells/250 μl were loaded into the cell culture inserts. The inserts were then added to the wells of 24-well plates which were filled with PDGF-BB diluted in RPMI with 0.1% BSA, and where indicated, L-PGDS was also added to this medium below the inserts.\nThe chambers were then incubated at 37° C. for 5 h to allow for cell migration. Afterwards, cells were completely removed from the upper side of the membrane with a cotton swab and the remaining migrated cells fixed and stained with Diff-Quik® solution (Dade Behring, Newark, Del.). Results are reported as the mean+/−SEM of five different fields, from three experiments, counted at 200× magnification.\nThe effect of L-PGDS on A549 migration was examined using trans-well inserts. FIG. 7 illustrates a 42% decrease in PGDF stimulated A549 migration in the presence of […] L-PGDS and a 77% decrease in the presence of […] L-PGDS. […] Cells were cultured and loaded into collagen coated […] cell culture inserts in the absence or presence of L-PGDS (25 or 50 μg/ml) as described above. Actual fields at 200× magnification are presented."}, "[5]": {"test_system": "Lipocalin-type prostaglandin D2 synthase (EC=5.3.99.2)", "conditions": "alanine substitution in human L-PGDS; Zhou et al., FASEB J. 2010; cited from earlier work"}}, "note": "“Also recorded” adds a separate entry of the source."}
{"molecule": "CCCCC/C=C/C=C1/C(=O)C=C[C@@H]1C/C=C\\CCCC(=O)O", "note": "[15d-PGD2, 15-deoxy-Delta12,14-prostaglandin J2]", "values": [{"measurement": "role in PGD2-induced apoptosis in A549 cells", "setting": "A549 cells [1]; PGD2 metabolites", "value": "likely candidate for the principal apoptotic inducer"}]}
{"molecule": "CCCCC[C@H](O)/C=C/[C@H]1C(=O)C[C@H](O)[C@@H]1C/C=C\\CCCC(=O)O", "note": "[PGD2, Prostaglandin D2]", "values": [{"measurement": "A549 cell death / apoptosis", "setting": "A549 cells [1]; A549 cells treated with PGD2", "value": "induces A549 cell death through the intrinsic apoptotic pathway"}, {"measurement": "involvement of DP or CRTH2/DP2 in PGD2-induced A549 cell death", "setting": "A549 cells [1]; DP and CRTH2/DP2 blocked with BWA868C and ramatroban", "value": "does not appear to involve either DP or CRTH2/DP2"}]}
{"molecule": "L-PGDS: Lipocalin-type prostaglandin D2 synthase protein, exogenously added to cultured cells (protein, UniProt P41222 23-190, looked up) Prostaglandin-H2 D-isomerase: APEAQVSVQPNFQQDKFLGRWFSAGLASNSSWLREKKAALSMCKSVVAPATDGGLNLTSTFLRKNQCETRTMLLQPAGSLGSYSYRSPHWGSTYSVSVVETDYDQYALLYSQGSKGPGEDFRMATLYSRTQTPRAELKEKFTAFCKAQGFTEDTIVFLPQTDKCMTEQ", "values": [{"measurement": "L-PGDS concentration at which MLE cell proliferation ceased", "setting": "[2]", "value": "≥ 25", "unit": "mg/L"}, {"measurement": "L-PGDS concentrations at which MLE cell proliferation was unaffected", "setting": "[2]", "value": "up to 10 mg/dl"}, {"measurement": "A549 cell proliferation", "setting": "A549 cells [3]; L-PGDS 1-50 mg/l, 18 h incubation, MTS assay", "value": "marked inhibition"}, {"measurement": "A549 hyper-proliferative growth (OD490nm)", "setting": "A549 cells [3]; exogenously added L-PGDS 0, 10, 25, 50 μg/ml, proliferation determined after 2 h", "value": "dose responsive inhibition"}, {"measurement": "A549 hyperproliferation", "setting": "A549 cells [3]", "value": "suppresses"}, {"measurement": "A549 hyperproliferation", "setting": "A549 cells [3]; listed as LPGDS", "value": "suppress"}, {"measurement": "decrease in PGDF stimulated A549 migration", "setting": "A549 cells [4]; 25 μg/μl L-PGDS", "value": 42, "unit": "%"}, {"measurement": "decrease in PGDF stimulated A549 migration", "setting": "A549 cells [4]; 50 μg/μl L-PGDS", "value": 77, "unit": "%"}, {"measurement": "A549 migration inhibition", "setting": "A549 cells [4]; 100 μg/μl L-PGDS (data not shown)", "value": "no further increase in migration inhibition"}, {"measurement": "PDGF-stimulated migration of A549 cells", "setting": "A549 cells [4]", "value": "suppresses; also recorded: inhibits"}, {"measurement": "PDGF-stimulated migration of A549 cells", "setting": "A549 cells [4]; listed as LPGDS", "value": "suppress"}]}
{"molecule": "59 K→A: human L-PGDS with residue 59 K changed to A (protein, UniProt P41222 23-190, looked up, variant K59A) Prostaglandin-H2 D-isomerase: APEAQVSVQPNFQQDKFLGRWFSAGLASNSSWLREKAAALSMCKSVVAPATDGGLNLTSTFLRKNQCETRTMLLQPAGSLGSYSYRSPHWGSTYSVSVVETDYDQYALLYSQGSKGPGEDFRMATLYSRTQTPRAELKEKFTAFCKAQGFTEDTIVFLPQTDKCMTEQ", "values": [{"measurement": "change of enzyme activity by sequence modification", "setting": "[5]", "value": "Increases enzyme activity about two-fold"}]}
{"molecule": "131 L→A: human L-PGDS with residue 131 L changed to A (protein, UniProt P41222 23-190, looked up, variant L131A) Prostaglandin-H2 D-isomerase: APEAQVSVQPNFQQDKFLGRWFSAGLASNSSWLREKKAALSMCKSVVAPATDGGLNLTSTFLRKNQCETRTMLLQPAGSLGSYSYRSPHWGSTYSVSVVETDYDQYALAYSQGSKGPGEDFRMATLYSRTQTPRAELKEKFTAFCKAQGFTEDTIVFLPQTDKCMTEQ", "values": [{"measurement": "change of enzyme activity by sequence modification", "setting": "[5]", "value": "Reduces enzyme activity almost ten-fold"}]}
{"molecule": "149 Y→A: human L-PGDS with residue 149 Y changed to A (protein, UniProt P41222 23-190, looked up, variant Y149A) Prostaglandin-H2 D-isomerase: APEAQVSVQPNFQQDKFLGRWFSAGLASNSSWLREKKAALSMCKSVVAPATDGGLNLTSTFLRKNQCETRTMLLQPAGSLGSYSYRSPHWGSTYSVSVVETDYDQYALLYSQGSKGPGEDFRMATLASRTQTPRAELKEKFTAFCKAQGFTEDTIVFLPQTDKCMTEQ", "values": [{"measurement": "change of enzyme activity by sequence modification", "setting": "[5]", "value": "Increases enzyme activity about two-fold"}]}
{"molecule": "83 F→A: human L-PGDS with residue 83 F changed to A (protein, UniProt P41222 23-190, looked up, variant F83A) Prostaglandin-H2 D-isomerase: APEAQVSVQPNFQQDKFLGRWFSAGLASNSSWLREKKAALSMCKSVVAPATDGGLNLTSTALRKNQCETRTMLLQPAGSLGSYSYRSPHWGSTYSVSVVETDYDQYALLYSQGSKGPGEDFRMATLYSRTQTPRAELKEKFTAFCKAQGFTEDTIVFLPQTDKCMTEQ", "values": [{"measurement": "change of enzyme activity by sequence modification", "setting": "[5]", "value": "Reduces enzyme activity about five-fold"}]}
{"molecule": "64 M→A: human L-PGDS with residue 64 M changed to A (protein, UniProt P41222 23-190, looked up, variant M64A) Prostaglandin-H2 D-isomerase: APEAQVSVQPNFQQDKFLGRWFSAGLASNSSWLREKKAALSACKSVVAPATDGGLNLTSTFLRKNQCETRTMLLQPAGSLGSYSYRSPHWGSTYSVSVVETDYDQYALLYSQGSKGPGEDFRMATLYSRTQTPRAELKEKFTAFCKAQGFTEDTIVFLPQTDKCMTEQ", "values": [{"measurement": "change of enzyme activity by sequence modification", "setting": "[5]", "value": "Reduces enzyme activity almost ten-fold"}]}
{"molecule": "79 L→A: human L-PGDS with residue 79 L changed to A (protein, UniProt P41222 23-190, looked up, variant L79A) Prostaglandin-H2 D-isomerase: APEAQVSVQPNFQQDKFLGRWFSAGLASNSSWLREKKAALSMCKSVVAPATDGGLNATSTFLRKNQCETRTMLLQPAGSLGSYSYRSPHWGSTYSVSVVETDYDQYALLYSQGSKGPGEDFRMATLYSRTQTPRAELKEKFTAFCKAQGFTEDTIVFLPQTDKCMTEQ", "values": [{"measurement": "change of enzyme activity by sequence modification", "setting": "[5]", "value": "Reduces enzyme activity over ten-fold"}]}
